The values below come from PMC4191409, “AP endonucleases process 5-methylcytosine excision intermediates during active DNA demethylation in Arabidopsis”.

Data set [1] deals with T1, MBP-ARP (Arabidopsis thaliana (Col-0), UniProt P45951 1-536).
T1 sequence: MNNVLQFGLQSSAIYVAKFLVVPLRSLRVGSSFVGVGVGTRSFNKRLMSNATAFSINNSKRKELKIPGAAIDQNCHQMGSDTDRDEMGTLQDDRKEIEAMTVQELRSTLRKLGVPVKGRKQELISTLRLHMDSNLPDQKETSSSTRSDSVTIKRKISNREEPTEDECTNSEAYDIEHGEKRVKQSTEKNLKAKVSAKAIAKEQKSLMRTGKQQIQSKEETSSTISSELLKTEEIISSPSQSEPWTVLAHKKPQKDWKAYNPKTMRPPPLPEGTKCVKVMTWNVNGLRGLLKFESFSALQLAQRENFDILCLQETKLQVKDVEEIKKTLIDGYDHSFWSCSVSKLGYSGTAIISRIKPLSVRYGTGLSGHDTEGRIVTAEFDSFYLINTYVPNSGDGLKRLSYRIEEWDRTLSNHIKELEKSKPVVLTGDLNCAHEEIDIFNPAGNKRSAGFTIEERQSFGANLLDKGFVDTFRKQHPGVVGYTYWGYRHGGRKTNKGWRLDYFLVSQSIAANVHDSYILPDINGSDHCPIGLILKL
Put plainly: EMSA; no Mg2+ listed; 100 and 300 nM protein, 50 nM DNA; EMSA: 10 mM Tris-HCl pH 8.0, 150 mM NaCl, 0.05% Triton X-100, 0.1 mg/mL BSA, 10% glycerol, 10 mM DTT; on ice 10 min; 8% native gel. Conditions: protein: recombinant; tags: N-terminal MBP (HRV 3C site); HisTrap purified; label: 32P (5' end of strand 1); blunt. (In EMSA bound probe runs differently from free probe, usually more slowly.)

Data set [2] has as its target T2, MBP-APE1L (Arabidopsis thaliana (Col-0), UniProt Q5XF07 1-364).
T2 sequence: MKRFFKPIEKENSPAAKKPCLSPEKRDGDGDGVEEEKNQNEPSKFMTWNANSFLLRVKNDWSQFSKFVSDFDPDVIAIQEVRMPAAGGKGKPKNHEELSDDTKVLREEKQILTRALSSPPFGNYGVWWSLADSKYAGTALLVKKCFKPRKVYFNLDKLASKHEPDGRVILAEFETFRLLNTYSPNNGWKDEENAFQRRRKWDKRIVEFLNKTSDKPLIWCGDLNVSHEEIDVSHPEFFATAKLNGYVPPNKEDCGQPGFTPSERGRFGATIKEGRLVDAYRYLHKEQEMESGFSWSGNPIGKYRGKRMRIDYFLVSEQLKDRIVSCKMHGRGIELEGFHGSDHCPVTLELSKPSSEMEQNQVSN
The data set is described as above. Conditions: protein: recombinant; tags: N-terminal MBP (HRV 3C site); HisTrap purified; label: 32P (5' end of strand 1); blunt.

B1: F35[5mC]/R35 (5mC 35-mer) (dsDNA)
DNA 1: GTACTGTGTGATACTATCGAATTCAGTATGATCTG
DNA 2: CAGATCATACTGAATTCGATAGTATCACACAGTAC
modifications: 5-methylcytosine at position 18 of strand 1
Regarding B1, the binding result in data set [1] and in data set [2] was “binds” throughout.
